Assay [1] has as its system Exiguobacterium undea (DSM14481). Put plainly: Lysozyme activity turbidity assay (optical density drop at 540 nm). In kind it is biochemical, Exiguobacterium undae. Particulars: for Lysozyme activity against Exiguobacterium undea (in words): OD drop assay.
Assay [2] has as its system Micrococcus lysodeikticus ATTC No. 4698. The assay is described as above. Particulars: for Lysozyme activity against Micrococcus lysodeikticus (in words): OD drop assay.
Assay [3] has as its system Clostridium perfringens DSM756. In kind it is cell-based. Conditions: for Diameter of clearing zone (mm): lysozymes 100 μg/ml, Bacitracin zinc salt 50 μg/ml; for Antimicrobial activity against Clostridium perfringens (in words): RDA.
The nature of assay [4]: Binding of LED to Avicel suspension (SDS gel of supernatant). Conditions: for Binding of LED protein to crystalline cellulose (in words): 25 mM Na-Acetate, pH 4.5, 25 mM NaCl.
Assay [5] deals with Micrococcus lysodeiktikus ATCC No. 4698 cells. Put plainly: Binding of LED to M. lysodeiktikus suspension (SDS gel of supernatant). Particulars: for Binding of LED protein to M. lysodiektikus cells (in words): 25 mM Na-Acetate, pH 4.5, 25 mM NaCl.
Setting [6] is: tested conditions (1/10 MHB pH 7 and 1/2 MHB pH 6).

Entries after “also recorded” stand apart in the source; their conditions may differ. Like-named read-outs stand apart in the source and are kept apart here.

B1: SEQ ID NO: 300: mature GH24 lysozyme from Metarhizium sp. XZ2431 (protein, listed as Metarhizium sp.)
chain: YPVSADSLNCRAEPNTSSAIKTTYKKGEDVKISCQTEGPSINGNTIWDKTQDGCYVADYYVKTGSSGYVTGKCGGSSPPSGSGFCKTVNKAGLDLITKWEGFVSSPRGDPIGLPTVGYGHLCQKKGCAEVKYKFPLTKATALQLLNDDLPKYTGCLGKLLNSKVKLNDNQWAALTSWVFNVGCGNAQSSSLVRRLNNGENPNTVAPSELPKWKMAGGKVLEGLVKRRADEVRLFKVSSSKGAFPKCQ
modifications: mat_peptide (1)..(247)
notes: mature GH24 lysozyme from Metarhizium sp; XZ2431
On to B1, for which the “Lysozyme activity against Exiguobacterium undea (in words)” value in assay [1] is reported as “good activity”. The “Lysozyme Activity against Exiguobacterium undae as measured by Optical Density Drop” value in assay [1] (assay pH 6 (Table 14)) is reported as “+++”. Further, the “Lysozyme activity against Micrococcus lysodeikticus (in words)” value in assay [2] is “good activity”. The “Lysozyme Activity against Micrococcus lysodeikticus as measured by Optical Density Drop” value in assay [2] (assay pH 6 (Table 14)) is recorded as “+++”.

B2: SEQ ID NO: 264: mature GH24 lysozyme from Chaetomium thermophilum, comprising LED (protein, listed as Chaetomium thermophilum)
chain: PASAYAITGDNVNCRSGPGTSYAVKKVYKKGTDVKISCQTTGTNINGNNLWDKTSDGCYVSDYYVKTGSNGYVTSKCSSSGGSTCAAPKSNQATVDLIAEFEGFRANIYTDAAGYATVGYGHKCQKAKCAEVKYKIPLSKADGKKLLADDMRSFEVCITNMLNSKAKLNYNQFGALVSWSFNVGCGAAKSSTLIKRLNNGENVNKVLSEELPKWNKAGGKVLQGLVRRRAAEVALAKKSGSSQALPVKC
modifications: mat_peptide (1)..(249)
notes: mature GH24 lysozyme from Chaetomium thermophilum, comprising LED
For the molecule B2, the “Diameter of clearing zone (mm)” value is given as 10 mm in assay [3] (Experiment 1, 1/2 MHB pH 6); 9 mm in assay [3] (Experiment 1, 1/10 MHB pH 7); 7 mm in assay [3] (Experiment 2, 1/10 MHB pH 7). The “Antimicrobial activity against Clostridium perfringens (in words)” value (“Antimicrobial activity” below) in assay [3] (50% MHB, pH 6) is “significant activity”; in assay [3] (setting [6]), “showed antimicrobial activity”. Moreover, in assay [1], the “Lysozyme activity against Exiguobacterium undea (in words)” value is listed as “good activity”. Further, in assay [1] (assay pH 6), the “Lysozyme Activity against Exiguobacterium undae as measured by Optical Density Drop” value is on record as “++++”. For the same molecule, in assay [2], the “Lysozyme activity against Micrococcus lysodeikticus (in words)” value is given as “good activity”. Moreover, the “Lysozyme Activity against Micrococcus lysodeikticus as measured by Optical Density Drop” value in assay [2] (assay pH 5) is reported as “++++”.

B3: SEQ ID NO: 273: mature LED (lysozyme enhancing domain) from Trichophaea saccata (protein)
chain: YPVKTDLHCRSSPSTSASIVRTYSSGTEVQIQCQTTGTSVQGSNVWDKTQHGCYVADYYVKTGHSGIFTTKCG
modifications: mat_peptide (1)..(73)
notes: mature LED (lysozyme enhancing domain) from Trichophaea saccata
In the case of B3, the “Binding of LED protein to crystalline cellulose (in words)” value in assay [4] is “did not bind”; in assay [4] (listed as LED protein), “could not bind”. Besides, the “Result: LED band intensity on an SDS gel (supernatant after incubation)” value in assay [4] (Suspension: Avicel, 30 minutes room temperature) is given as “+++”; in assay [5] (Suspension: M. lysodeiktikus, 30 minutes room temperature), “+”. In addition, the “Binding of LED protein to M. lysodiektikus cells (in words)” value is reported as “binds” in assay [5] and “able to bind” in assay [5] (listed as LED protein). The “Result: LED band intensity on an SDS gel” value in assay [5] (Suspension: None (untreated LED sample, reference for both suspensions)) is “+++”.

B4: SEQ ID NO: 280: mature GH24 lysozyme from Acremonium alcalophilum, mature sequence of SEQ ID NO: 6 of WO 2013/076259; no LED (protein, listed as Acremonium alcalophilum)
chain: QCVGPAINSAALNLIKEFEGWRPNIYRDPVGLPTVGYGHLCRDSSCSDVPYPIPLSVANGERLLRSDLATASSVVLNANQYGALVSWAFNVGCGATSTSTLIRRLNAGESPNTVAAQELPRWNKAGGQVLPGLVRRRAAEVELHRTSTSVRALPACS
modifications: mat_peptide (1)..(157)
notes: no LED
As to B4, the “Diameter of clearing zone (mm)” value is recorded as 0 mm in assay [3] (Experiment 1, 1/2 MHB pH 6); 0 mm in assay [3] (Experiment 1, 1/10 MHB pH 7); 0 mm in assay [3] (Experiment 2, 1/10 MHB pH 7). Further, in assay [3] (setting [6]), the “Antimicrobial activity” value was “do not have any activity; also recorded: did not inhibit growth”. Moreover, the “Lysozyme Activity against Exiguobacterium undae as measured by Optical Density Drop” value in assay [1] (assay pH 3-7) is given as “−”. Moreover, in assay [2], the “Lysozyme activity against Micrococcus lysodeikticus (in words)” value is “small amount of activity”. The “Lysozyme Activity against Micrococcus lysodeikticus as measured by Optical Density Drop” value in assay [2] (assay pH 4.5) is on record as “+”.

B5: SEQ ID NO: 297: mature GH24 lysozyme from Mortierella sp. ZY002 (protein, listed as Mortierella sp.)
chain: YPITGADALHCRSGPGTSYPIQKTLRPPQDIKIQCQEPGTVVNGVSLWDKTQFGCYVSDYYVKTGTGNYVAPRCNSGGSSSACTGLNDAGINLIKEFEGFVPRPAPDPIGLPTVGYGHLCQTKGCGEVKYSFPLTTATATALLKDDLPKYTSCLAKALNGKPKLNKNQWAALASWTFNVGCGNMKSSSLITRLNAGQNPNTVATEELPKWKLAGGKVLPGLVRRRAAEVKLFKTANSSQGYPKCA
modifications: mat_peptide (1)..(245)
notes: mature GH24 lysozyme from Mortierella sp; ZY002
For the molecule B5, in assay [1], the “Lysozyme activity against Exiguobacterium undea (in words)” value is “good activity”. In assay [1] (assay pH 6 (Table 14)), the “Lysozyme Activity against Exiguobacterium undae as measured by Optical Density Drop” value was “+++”. Besides, the “Lysozyme activity against Micrococcus lysodeikticus (in words)” value in assay [2] is recorded as “good activity”. The “Lysozyme Activity against Micrococcus lysodeikticus as measured by Optical Density Drop” value in assay [2] (assay pH 6 (Table 14)) is given as “++++”.

B6: SEQ ID NO: 303: mature GH24 lysozyme from Geomyces auratus (protein, listed as Geomyces auratus)
chain: AFPITGSTVNCRTGPGTSHGVKTSYKKGHEVTVSCQTGGTSVNGNSIWDKTSDGCYVADYYVKTGSSGYVKPKCGSSSGGGGGSSCGAPKSNAATVNLIAEFEGFVSHVYTDATGHPTVGYGHLCSNSKCSGIGYSIPISKANAKKLLAKDMAIAEKCITAMINKSRTLNLNQYGALVSWAFNEGCGAAKSSTLIKRINNGEKPSTVIPQELPKWVYGGSSVLPGLVRRRNAEIALAKKATSSKALPAHC
modifications: mat_peptide (1)..(250)
notes: mature GH24 lysozyme from Geomyces auratus
On to B6, for which the “Lysozyme activity against Exiguobacterium undea (in words)” value in assay [1] is “good activity”. Also, in assay [1] (assay pH 6 (Table 14)), the “Lysozyme Activity against Exiguobacterium undae as measured by Optical Density Drop” value is “++++”. Moreover, the “Lysozyme activity against Micrococcus lysodeikticus (in words)” value in assay [2] was “good activity”. In addition, the “Lysozyme Activity against Micrococcus lysodeikticus as measured by Optical Density Drop” value in assay [2] (assay pH 6 (Table 14)) is given as “+++”.

B7: SEQ ID NO: 306: mature GH24 lysozyme from Ilyonectria rufa (protein, listed as Ilyonectria rufa)
chain: YKITGDNVNCRSGPGTSYSVKRSFKKGTDVTLSCQTTGENVLGTSIWDKTSYGCYVSDYYVKTGSSGFVVKKCGTCGAPKSNAATVNLISDFEGFRANIYKDAAGYPTVGYGHLCSNSRCTDVPYSIPLSKANGKNLLATDMTKFEKCITAMVSSSVTLNKNQYGALVSWAFNMGCGATKTSTLIKRLNQGQNVNTVLSTELPKWVYAGGKKLNGLVRRRNAEIALAKKKTTEKALPNKC
modifications: mat_peptide (1)..(240)
notes: mature GH24 lysozyme from Ilyonectria rufa
For the molecule B7, the “Lysozyme activity against Exiguobacterium undea (in words)” value in assay [1] was “good activity”. The “Lysozyme Activity against Exiguobacterium undae as measured by Optical Density Drop” value in assay [1] (assay pH 6 (Table 14)) is “++++”. For the same molecule, the “Lysozyme activity against Micrococcus lysodeikticus (in words)” value in assay [2] was “good activity”. Moreover, the “Lysozyme Activity against Micrococcus lysodeikticus as measured by Optical Density Drop” value in assay [2] (assay pH 6 (Table 14)) is given as “++”.

B8: SEQ ID NO: 267: mature GH24 lysozyme from Trichoderma harzianum, comprising LED (protein, listed as Trichoderma harzianum)
chain: YPITGDVVNCRTGPGTSYAIKKSYKKNQDISISCQTAGTSVNGNSIWDKTADGCYVADYYVKTGSSGYVTKKCTASSGGGSSSSYCKTINSAGVDLIAKWEGFVASPKPDPIGLPTVGYGHLCQQKNCREVKYKFPLTKTTAKELLLDDLPKYTKCLADYLNDKPKLNANQWAALTSWVFNVGCGNAKTSTLVKRLNNGEAANTVAAEELPKWRMAGGKVLPGLEARRKDEVKLFKTASSKQAYPKCQ
modifications: mat_peptide (1)..(248)
notes: mature GH24 lysozyme from Trichoderma harzianum, comprising LED
In the case of B8, the “Diameter of clearing zone (mm)” value amounted to 12 mm in assay [3] (Experiment 1, 1/2 MHB pH 6); 10 mm in assay [3] (Experiment 1, 1/10 MHB pH 7); 8 mm in assay [3] (Experiment 2, 1/10 MHB pH 7). Further, the “Antimicrobial activity” value in assay [3] (50% MHB, pH 6) was “significant activity”; in assay [3] (setting [6]), “showed antimicrobial activity”. The “Lysozyme activity against Exiguobacterium undea (in words)” value in assay [1] was “good activity”. Further, the “Lysozyme Activity against Exiguobacterium undae as measured by Optical Density Drop” value in assay [1] (assay pH 6 (Table 14)) was “++++”. In assay [2], the “Lysozyme activity against Micrococcus lysodeikticus (in words)” value is on record as “good activity”. In addition, the “Lysozyme Activity against Micrococcus lysodeikticus as measured by Optical Density Drop” value in assay [2] (assay pH 6 (Table 14)) is on record as “+++”.

The values are drawn from US12324447B2, “Animal feed compositions and uses thereof” (priority 2015, dated 2025).
